Among the data in publication PMC11847480 are TF-1 cell proliferation, fold change of EC50 against wild-type LIF and TF-1 cell proliferation activity against wild-type LIF values, retold here.

This experiment addresses gp130 (human (endogenous in TF-1)) (UniProt P40189).

Chain of gp130 (human (endogenous in TF-1)) (P40189 23-918): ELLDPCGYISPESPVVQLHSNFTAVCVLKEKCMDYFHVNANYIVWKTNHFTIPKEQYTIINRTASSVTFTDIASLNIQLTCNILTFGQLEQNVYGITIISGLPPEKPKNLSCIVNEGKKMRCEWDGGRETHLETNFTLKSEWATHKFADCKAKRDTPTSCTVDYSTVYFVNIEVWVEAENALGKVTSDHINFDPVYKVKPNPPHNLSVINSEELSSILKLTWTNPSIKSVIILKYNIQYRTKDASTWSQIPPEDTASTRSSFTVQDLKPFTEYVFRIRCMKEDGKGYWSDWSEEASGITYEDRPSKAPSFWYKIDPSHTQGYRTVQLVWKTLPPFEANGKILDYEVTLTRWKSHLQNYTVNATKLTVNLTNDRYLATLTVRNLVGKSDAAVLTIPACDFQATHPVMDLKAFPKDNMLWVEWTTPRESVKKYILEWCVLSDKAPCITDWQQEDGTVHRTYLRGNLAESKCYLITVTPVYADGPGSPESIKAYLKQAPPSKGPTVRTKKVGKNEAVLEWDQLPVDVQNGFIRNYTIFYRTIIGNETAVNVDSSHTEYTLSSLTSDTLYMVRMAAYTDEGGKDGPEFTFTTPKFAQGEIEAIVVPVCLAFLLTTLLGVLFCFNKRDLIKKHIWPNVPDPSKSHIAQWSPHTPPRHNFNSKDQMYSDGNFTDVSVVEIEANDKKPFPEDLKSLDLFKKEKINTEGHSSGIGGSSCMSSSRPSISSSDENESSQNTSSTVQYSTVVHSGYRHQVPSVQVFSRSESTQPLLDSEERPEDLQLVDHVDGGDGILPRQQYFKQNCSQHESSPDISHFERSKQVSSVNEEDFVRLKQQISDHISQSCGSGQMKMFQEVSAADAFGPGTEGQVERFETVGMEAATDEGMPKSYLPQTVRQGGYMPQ
Chain of LIF with truncation of the N-terminal region (P15018 23-202): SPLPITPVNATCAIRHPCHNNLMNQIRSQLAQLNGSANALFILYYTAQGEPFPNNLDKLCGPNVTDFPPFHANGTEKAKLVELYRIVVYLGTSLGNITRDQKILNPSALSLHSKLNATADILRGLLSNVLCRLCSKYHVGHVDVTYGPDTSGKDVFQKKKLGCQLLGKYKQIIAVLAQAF

Substance “LIF 2E (R37E and H38E) (from UniProt P15018 23-202) (ligand)” displayed a TF-1 cell proliferation, fold change of EC50 against wild-type LIF of 3 fold.
As for “LIF 3E (R37E, H38E and H41E) (from UniProt P15018 23-202) (ligand)”, the TF-1 cell proliferation, fold change of EC50 against wild-type LIF worked out at 4 fold.
For the substance “LIF with truncation of the N-terminal region (from UniProt P15018 23-202) (ligand)”, the TF-1 cell proliferation activity against wild-type LIF stood at 1 fold.
